Test results from patent US20220185853A1, “AMANTADINE BINDING PROTEIN” (UNIVERSITY OF WASHINGTON, priority 2019, published 2022).
“Also recorded” adds a separate entry of the source.

Tests used:
[1] = tested on: 2L6HC3_13; assay: Thermofluor assay, amantadine on 2L6HC3_13 (scaffold lacking the amantadine binding site); settings: 1 mM amantadine
Protocol: (§1) A synthetic gene encoding ABP was obtained and the protein expressed in E. coli.The design was expressed at high levels in the soluble fraction and was found by SEC-MALS to be a trimer in the presence and absence of amantadine (FIG. 2a). Interactions with amantadine were probed using thermofluor dye binding assay (differential scanning fluorimetry). […] As the protein was heated to 95° C., the fluorescence signal decreased, corresponding to protein aggregation at higher temperatures. […] In contrast, 2L6HC3_13, which has the same backbone parameters but lacks the amantadine binding site, is thermally stable by thermofluor assay, only starting to denature at ˜80° C. (FIG. 2b).
(§2) Thermofluor assays were performed in SAXS buffer using a CFX96 Touch™ Real-Time PCR machine (Bio-Rad). Thermal stability assays were performed using 45 μL of 5 μM protein (with or without 1 mM amantadine) and 5 μL of freshly prepared 200X SYPRO™ orange (Thermo-Fisher) solution in SAXS buffer. The temperature was ramped from 25 ° C. to 95 ° C. in 0.5 ° C. increments with intervals of 5 s. Fluorescence was read in the FRET scanning mode. The average of three replicates of buffer+SYPRO orange solution (no protein control) was subtracted from the average of three replicates for each sample.

[2] = tested on: ABP (amantadine-binding protein); assay: Thermofluor dye binding assay (differential scanning fluorimetry), amantadine on ABP; settings: 1 mM amantadine, 5 μM protein, SYPRO orange, 25° C.
Protocol: as §1, §2

[3] = tested on: ABP_L6Q; assay: Thermofluor assay, amantadine on ABP_L6Q; assay type: binding; settings: 1 mM amantadine, 5 μM protein, SYPRO orange, 25° C.
Protocol: (§3) As the protein was heated to 95° C., the fluorescence signal decreased, corresponding to protein aggregation at higher temperatures.
as §2

[4] = tested on: ABP; assay: Circular dichroism temperature melt of ABP in the presence of amantadine; assay type: binding
Protocol: as §1
(§4) CD wavelength scans (260 to 195 nm) and temperature melts (25 to 95° C.) were measured using a JASCO™ J-1500 or an AVIV™ model 420 CD spectrometer. Temperature melts monitored […] at 222 nm and were carried out at a heating rate of 4° C/min. Protein samples were prepared at 0.25 mg/mL in phosphate buffered saline (PBS) pH 7.4 in a 0.1 cm cuvette.

[5] = Thermofluor melting curve of the proteins without ligand; assay type: physicochemical; settings: for initial fluorescence signal of the apo protein (thermofluor melting curve): 25° C., without amantadine
Protocol: as §1, §3, §2

[6] = Circular dichroism temperature melt of ABP; assay type: physicochemical; settings: CD at 25, 75, 95° C., without amantadine
Protocol: as §1, §4

[7] = SEC-MALS oligomeric state; assay type: physicochemical; settings: in the presence and absence of amantadine
Protocol: as §1

[8] = target: the molecule itself; assay: SEC-MALS; self-association of ABP subunits into a homo-trimer

## NC12CC3CC(CC(C3)C1)C2 [amantadine]
[1]
  effect of amantadine on the melting curve of 2L6HC3_13: no effect
[2]
  initial fluorescence signal of ABP in the presence of amantadine, compared with apo-ABP: lowered; also recorded: much lower
[3]
  initial fluorescence signal of ABP_L6Q in the presence of amantadine, compared with apo-ABP_L6Q: lowered; also recorded: much lower
[4]; 1 mM amantadine
  loss in CD signal of ABP on heating to 95° C. in the presence of amantadine: not significantly altered
[4]; 5 mM amantadine, 25, 75, 95° C.
  thermal stability of ABP by CD spectrum in the presence of amantadine: not significantly affected

B1: ABP: de novo designed homo-trimeric amantadine-binding protein, SEQ ID NO:1 (protein)
chain: DAQDKLKYLVKQLERALRELKKSLDELERSLEELEKNPSEDALVENNRLNVENNKIIVEVLRIILELAKASAKLA
modifications: homotrimer
[5]
  initial fluorescence signal of the apo protein (thermofluor melting curve): high
[6]
  thermal stability of the all α-helical structure by CD spectrum: fairly stable up to 75 °C
[7]
  oligomeric state by SEC-MALS: trimer

B2: 2L6HC3_13: previously characterized design; same backbone parameters as ABP but lacks the amantadine binding site (protein)
chain: GTKYELRRALEELEKALRELKKSLDELERSLEELEKNPSEDALVENNRLNVENNKIIVEVLRIIAEVLKINAKSD
[5]
  initial fluorescence signal of the apo protein (thermofluor melting curve): very low
[5]; thermofluor assay, 25 to 95° C.
  temperature at which the protein starts to denature (thermofluor): ~80 °C

B3: ABP (amantadine-binding protein) (designed binder)
chain: GSHMGDAQDKLKYLVKQLERALRELKKSLDELERSLEELEKNPSEDALVENNRLNVENNKIIVEVLRIILELAKASAKLA
notes: The measurement row with m1 as both partners means self-association of ABP subunits
[8]
  binding result: binds
